The target of this data set is HGF (hepatocyte growth factor/scatter factor) (UniProt P14210+P14210). Put plainly: filter. The conditions noted are these: 2'-F pyrimidines.

The text below walks through data of patent publication US6344321.

The Kd is the concentration at which binding is half-saturated. A high value points to lower affinity.

Sequence of HGF (hepatocyte growth factor/scatter factor) (P14210 32-494, chain 1 of 2): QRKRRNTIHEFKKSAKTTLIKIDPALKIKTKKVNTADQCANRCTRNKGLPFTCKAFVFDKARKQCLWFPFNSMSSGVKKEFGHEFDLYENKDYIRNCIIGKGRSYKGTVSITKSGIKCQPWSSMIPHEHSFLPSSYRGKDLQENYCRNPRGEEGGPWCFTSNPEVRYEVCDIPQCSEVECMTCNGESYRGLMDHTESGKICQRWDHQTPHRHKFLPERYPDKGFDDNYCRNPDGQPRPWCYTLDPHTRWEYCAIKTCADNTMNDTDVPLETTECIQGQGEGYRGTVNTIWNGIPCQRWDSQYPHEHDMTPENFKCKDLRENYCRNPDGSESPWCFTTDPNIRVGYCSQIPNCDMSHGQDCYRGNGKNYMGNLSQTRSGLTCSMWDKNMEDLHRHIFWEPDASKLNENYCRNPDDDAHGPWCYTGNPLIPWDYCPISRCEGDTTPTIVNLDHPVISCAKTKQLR
Sequence of HGF (hepatocyte growth factor/scatter factor) (P14210 495-728, chain 2 of 2): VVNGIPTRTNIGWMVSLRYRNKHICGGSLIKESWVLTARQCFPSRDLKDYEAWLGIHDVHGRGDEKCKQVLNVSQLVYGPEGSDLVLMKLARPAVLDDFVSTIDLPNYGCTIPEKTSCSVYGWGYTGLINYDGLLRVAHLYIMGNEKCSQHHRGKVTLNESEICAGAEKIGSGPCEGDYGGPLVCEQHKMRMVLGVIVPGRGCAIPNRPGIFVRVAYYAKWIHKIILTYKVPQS

The sequence “GGAGAGNUCCUAUUUAUGACAUCCCAUGCCCCCA [Tr65]” showed a Kd (one or two 5' G, one N in printed sequence) of 1.4 nM.
In the case of “GGGAGGACGAUGCGGNNNNNNNNNNNNNNNNNNNNNNNNNNNNNNCAGACGACUCGCCCGA [random 30N7 pool]”, the Kd (random pool, 550 nM with competitor tRNA) came out at 1.6 nM.
